# Tests used:
# p53 (GST fusion) [1] = biological target: T1, p53 (GST fusion) (UniProt P04637 1-393); assay: EMSA; 100-500 nM GST-p53, no BRCA1; 50 mM NaCl, 10 mM Tris-HCl pH 8.0, 0.5 mM EDTA, 1 mM DTT, 5% glycerol; 6% native PAGE in TAE at 4 C; incubation temperature not stated; settings: protein: recombinant, tags: N-terminal GST, uncleaved (pGEX2TKp53), chain copies: 4, label: 5'-32P when used as probe
# BRCA1 230-534 [2] = biological target: T2, BRCA1 230-534 (UniProt P38398 230-534); assay: competition EMSA; 0.5 uM labelled linear duplex, 5 uM P1; 50 mM NaCl, 10 mM Tris-HCl pH 8.0, 0.5 mM EDTA, 1 mM DTT, 5% glycerol; 6% native PAGE in TAE at 4 C; incubation temperature not stated; settings: protein: recombinant, tags: none stated (expressed from pET22b), label: 5'-32P when used as probe
# T2 sequence (P38398 230-534): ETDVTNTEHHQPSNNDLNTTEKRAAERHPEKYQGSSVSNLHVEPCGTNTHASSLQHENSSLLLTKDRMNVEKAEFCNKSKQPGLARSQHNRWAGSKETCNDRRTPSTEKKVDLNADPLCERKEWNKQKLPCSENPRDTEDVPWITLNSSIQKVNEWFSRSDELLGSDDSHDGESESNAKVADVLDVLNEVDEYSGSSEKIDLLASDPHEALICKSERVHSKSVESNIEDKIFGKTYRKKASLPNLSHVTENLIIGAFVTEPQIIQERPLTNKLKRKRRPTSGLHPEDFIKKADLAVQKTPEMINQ
# BRCA1 230-534 [3] = biological target: T2, BRCA1 230-534; assay: EMSA; 1-5 uM P1, 0.5 uM DNA; 50 mM NaCl, 10 mM Tris-HCl pH 8.0, 0.5 mM EDTA, 1 mM DTT, 5% glycerol; 6% native PAGE in TAE at 4 C; incubation temperature not stated; settings: protein: recombinant; tags: none stated (expressed from pET22b); label: 5'-32P when used as probe; duplex
# p53 (GST fusion) [4] = biological target: T1, p53 (GST fusion); assay: EMSA; 100-500 nM GST-p53, no BRCA1; no binding at 200 nM (lane 8); 50 mM NaCl, 10 mM Tris-HCl pH 8.0, 0.5 mM EDTA, 1 mM DTT, 5% glycerol; 6% native PAGE in TAE at 4 C; incubation temperature not stated; settings: protein: recombinant; tags: N-terminal GST, uncleaved (pGEX2TKp53); chain copies: 4; label: 5'-32P when used as probe; four-way junction
# [5] = duplex with C:C mismatches (design after triple lesions)
# T1 sequence (P04637 whole entry, the tested form may be a part): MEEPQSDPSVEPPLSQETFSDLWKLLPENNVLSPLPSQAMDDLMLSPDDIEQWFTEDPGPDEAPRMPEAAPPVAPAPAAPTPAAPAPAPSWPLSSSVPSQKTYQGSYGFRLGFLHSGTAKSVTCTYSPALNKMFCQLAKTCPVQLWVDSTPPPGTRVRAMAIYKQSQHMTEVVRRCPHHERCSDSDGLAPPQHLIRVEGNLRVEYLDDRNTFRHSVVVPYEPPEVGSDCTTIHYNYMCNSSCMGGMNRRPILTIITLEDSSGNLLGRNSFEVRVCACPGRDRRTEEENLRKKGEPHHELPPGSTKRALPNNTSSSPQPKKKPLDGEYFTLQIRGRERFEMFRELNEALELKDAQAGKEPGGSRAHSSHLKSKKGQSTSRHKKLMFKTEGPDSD
binder,measurement,setting,value
C:C mismatch DNA (dsDNA) DNA 1: CCCTCGGAGCACTGCACAACCCCTGGCCGCCG DNA 2: CGGCGGCCAGCGGTTCTGCACTGCTCCGAGGG,binding result,p53 (GST fusion) [1]; [5],no binding
same,binding signal,BRCA1 230-534 [2]; [5],70 % reduction of P1 bound to labelled linear duplex at equimolar competitor
linear duplex DNA (dsDNA) DNA 1: CCCTCGGAGCACTGCACAACCCCTGGCCGCCG DNA 2: CGGCGGCCAGGGGTTGTGCAGTGCTCCGAGGG,binding result,BRCA1 230-534 [3],binds
four-way junction DNA (structured_DNA) DNA 1: AGATCTGGCGTTAGGTGATACCGATGCATC DNA 2: CATGCATCGGTATCAGGCTTACGACTAGTG DNA 3: CACTAGTCGTAAGCCACTCGTGCTGAATTC DNA 4: GAATTCAGCACGAGTCCTAACGCCAGATCT,binding result,p53 (GST fusion) [4],binds
same,binding signal,BRCA1 230-534 [2]; four-way junction,91 % reduction of P1 bound to labelled linear duplex at equimolar competitor
bulge containing DNA (dsDNA) DNA 1: CACGCTAAGTCCGATGCGTGAGATCCGC DNA 2: GCGGATCTCACGCGTATCGGACTTAGCGTG,binding result,p53 (GST fusion) [1]; duplex with bulge,no binding
same,binding signal,BRCA1 230-534 [2]; duplex with bulge,65 % reduction of P1 bound to labelled linear duplex at equimolar competitor
